# Measurements: publication PMC7128310, “Negative Regulation of TLR Signaling by BCAP Requires Dimerization of Its DBB Domain” (The Journal of Immunology Author Choice, 2020)
# Target: the molecule itself
# Assay: SEC-MALS; 50 μl at 2 mg/ml on Superdex 200 Increase 10/300 GL
protein,measurement,value
"BCAP DBB-ANK (residues 179-404) (domain or fragment, human, UniProt Q6ZUJ8 179-404, looked up, B cell adaptor protein (BCAP), human, DBB and ANK domains, residues 179-404; Cloned into pMCSG7 or pMCSG9; source: E. coli BL21(DE3), purified (Ni-NTA, TEV, Superdex 200)) MVVQPDRIRCGAETTVYVIVRCKLDDRVATEAEFSPEDSPSVRMEAKVENEYTISVKAPNLSSGNVSLKIYSGDLVVCETVISYYTDMEEIGNLLSNAANPVEFMCQAFKIVPYNTETLDKLLTESLKNNIPASGLHLFGINQLEEEDMMTNQRDEELPTLLHFAAKYGLKNLTALLLTCPGALQAYSVANKHGHYPNTIAEKHGFRDLRQFIDEYVETVDMLKSH",stoichiometry N,2
